Common to all, as to assay: cell-based or functional assay
For test [1], the target named is T1, CD137 on Jurkat reporter cells (Promega kit CS196005) (UniProt Q07011 24-255, limits assumed).
For test [2], the target named is T1, CD137 on Jurkat reporter cells (Promega …). This is another data set of the same source.
The target is the same in test [3]. This is another data set of the same source.
Test [4] shares this target. This is another data set of the same source.
For test [5], the target named is T2, OX40 on Jurkat reporter cells (Promega CS197704) (UniProt P43489 29-277).
T2 sequence (looked up): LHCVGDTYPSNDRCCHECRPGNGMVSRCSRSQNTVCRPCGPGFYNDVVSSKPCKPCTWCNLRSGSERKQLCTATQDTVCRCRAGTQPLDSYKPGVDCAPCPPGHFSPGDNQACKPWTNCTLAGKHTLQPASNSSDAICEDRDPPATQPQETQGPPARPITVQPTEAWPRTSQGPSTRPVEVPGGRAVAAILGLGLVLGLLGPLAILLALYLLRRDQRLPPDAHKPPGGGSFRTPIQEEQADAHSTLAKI

This note sets out measurements from US20230129258A1 (Bicycle, published 2023).

Starred links: 1 amine or outer side, 2 acyl side, 3 side chain; linkers in the order of their positions; H or OH if unused. Positions of bridges follow the written chain, without caps; N, C: chain ends. Non-standard residues stand in square brackets, D forms with d. Chains are numbered I, II in the order given. No end group written: not given here. *: point of attachment. TATA = O=C(CC[*:1])N1CN(C(=O)CC[*:2])CN(C(=O)CC[*:3])C1; γGlu = O=C(O)[C@H](CCC(=O)[*:2])N[*:1]; 1Nal = N[C@@H](Cc1cccc2ccccc12)C(=O)O; Palmitoyl = CCCCCCCCCCCCCCCC(=O)*; Hyp = O=C(O)[C@@H]1C[C@@H](O)CN1; hArg = N=C(N)NCCCC[C@H](N)C(=O)O; tBuAla = CC(C)(C)C[C@H](N)C(=O)O; Cysteamide = C(CS[*:3])N[*:1]; dK(PYA) = not defined here; NMeA = CN[C@@H](C)C(=O)O; Nle = CCCC[C@H](N)C(=O)O; Pent4ynoyl = C#CCCC(=O)*; dNMeA = CN[C@H](C)C(=O)O; Mpa = O=C(O)CCS

T1 sequence (Q07011 24-255 limits assumed): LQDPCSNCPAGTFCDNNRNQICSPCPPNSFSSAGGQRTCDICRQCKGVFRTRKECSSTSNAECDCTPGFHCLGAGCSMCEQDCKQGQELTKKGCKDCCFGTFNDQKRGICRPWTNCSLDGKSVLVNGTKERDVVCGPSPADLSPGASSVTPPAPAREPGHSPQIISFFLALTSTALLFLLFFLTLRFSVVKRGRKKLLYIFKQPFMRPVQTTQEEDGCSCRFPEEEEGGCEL

B1: BCY11027 (peptide)
peptide 1: CPXDCMXDWSTPXWC
peptide 2: CXPEXPYCFADPYXCA
modifications: not fully specified; BCY8928: Ac-(SEQ ID NO: 11)-A; TATA; linker at dLys(PYA)4; BCY11015: [PYA]-(SEQ ID NO: 1); TATA; linker at N-term PYA
B1: the “EC50 (nM), HT1376 co-culture” value in test [1] was determined as 0.18 nM.

B2: BCY12588 (peptide)
peptide 1: CP[1Nal]DCM[hArg]DWSTP[Hyp]WC
peptide 2: [Mpa][tBuAla]PE[dK](Pent4ynoyl)PYCFADPY[Nle][Cysteamide]
modifications: linker I:1-I:5-I:15, II:1-II:8-II:15 via TATA; not fully specified (some residues); also: chain 2 present twice on linker, Nectin-4:CD137 1:2, linker at chain B 5 to a chain's N-terminus via N-(acid-PEG3)-N-bis(PEG3-azide)
For B2, in test [2], the “Fold improvement in EC50 over BCY10000 on same plate, NCI-H292” value (from here on “Fold improvement in EC50 over BCY10000”) worked out at 0.72 fold and the “Fold improvement in Emax over BCY10000 on same plate, NCI-H292” value (from here on “Fold improvement in Emax over BCY10000”) came out at 3.2 fold.

B3: BCY11780 (peptide)
peptide 1: SDKCSAGWLTMCQXLHLCPSH
peptide 2: CXPEXPYCFADPYXCA
modifications: BCY8928: Ac-(SEQ ID NO: 11)-A; TATA; linker at dLys4; BCY10861: Ac-SDK-(SEQ ID NO: 53)-PSH; TATA; linker at Lys(PYA)9
Consider B3, for which, in test [3], the “EC50 (nM), RKO co-culture” value was found to be 1.9 nM and the “Fold Induction over background, RKO co-culture” value stood at 13 fold.

B4: BCY11022 (peptide)
peptide 1: CPXDCMXDWSTPXWC
peptide 2: CXPEXPYCFADPYXCA
modifications: not fully specified; BCY8928: Ac-(SEQ ID NO: 11)-A; TATA; linker at dLys(PYA)4; BCY11016: [PYA]-[B-Ala]-(SEQ ID NO: 1); TATA; linker at N-term PYA
For B4, in test [1], the “EC50 (nM), HT1376 co-culture” value came out at 0.2 nM and the “Emax (fold induction over background), HT1376” value turned out to be 66 fold over background.

B5: BCY12760 (peptide)
peptide 1: CP[1Nal]DCM[hArg]DWSTP[Hyp]WC
peptide 2: Ac-C[tBuAla]PE[dK](Pent4ynoyl)PYCFAD[NMeA]Y[Nle]C
modifications: linker I:1-I:5-I:15, II:1-II:8-II:15 via TATA; not fully specified (some residues, bridges); also: chain 1 N-terminus and chain 2 dLys(PYA)4 joined by N-(acid-PEG3)-N-bis(PEG3-azide) linker
B5: in test [1], the “EC50 (nM), HT1376 co-culture” value amounted to 1.8 nM and the “Emax (fold induction over background), HT1376” value amounted to 76 fold over background.

B6: BCY13583 (peptide)
peptide 1: CP[1Nal][dD]CM[hArg]DWSTP[Hyp]WC
peptide 2: Ac-C[tBuAla]PE[dK(PYA)]PYCFADPY[Nle]CA
peptide 3: Ac-C[tBuAla]PE[dK(PYA)]PYCFADPY[Nle]CK
modifications: linker I:1-I:5-I:15 via TATA; linker II:1-II:8-II:15, III:1-III:8-III:15 via TATA (inferred); reading uncertain; also: Alexa Fluor 488 label, site not given here, linker at chain B 5 at chain C 5 to a chain's N-terminus via N-(acid-PEG3)-N-bis(PEG3-azide)
On to B6, for which, in test [1], the “EC50 (nM), HT1376 co-culture” value was found to be 1.7 nM and the “Emax (fold induction over background), HT1376” value was 63 fold over background. Moreover, in test [4], the “Arithmetic mean EC50 (nM), HT1376 co-culture” value was 1.7 nM and the “Arithmetic mean EC50 (nM), MDA-MB-468 co-culture” value was determined as 0.84 nM.

B7: BCY12967 (peptide)
peptide 1: CP[1Nal]DCM[hArg]DWSTP[Hyp]WC
peptide 2: ACLYSPCWHPLNDCAK(Pent4ynoyl)
modifications: linker I:1-I:5-I:15 via TATA; linker II:2-II:7-II:14 via TATA (inferred); not fully specified (some residues); also: chain 1 N-terminus and chain 2 C-terminal Lys(PYA) joined by N-(acid-PEG3)-N-bis(PEG3-azide) linker
Take B7: in test [5], the “EC50 (nM), Promega OX40 cell-activity assay in co-culture with tumor cells” value was found to be 0.83 nM.

B8: BCY12487 (peptide)
peptide 1: CP[1Nal]DCM[hArg]DWSTP[Hyp]WC
peptide 2: Ac-C[tBuAla]PE[dK](Pent4ynoyl)PYCFAEPY[Nle]C
modifications: linker I:1-I:5-I:15, II:1-II:8-II:15 via TATA; not fully specified (some residues, bridges); also: chain 1 N-terminus and chain 2 dLys(PYA)4 joined by N-(acid-PEG3)-N-bis(PEG3-azide) linker
On to B8, for which, in test [1], the “EC50 (nM), HT1376 co-culture” value worked out at 13 nM and the “Emax (fold induction over background), HT1376” value came out at 12 fold over background.

B9: BCY12590 (peptide)
peptide 1: CP[1Nal]ECM[hArg]EWSTP[Hyp]WC
peptide 2: Ac-C[tBuAla]PE[dK](Pent4ynoyl)PYCFADPY[Nle]CA
modifications: linker I:1-I:5-I:15, II:1-II:8-II:15 via TATA; not fully specified (some residues, bridges); also: chains joined via N-(acid-PEG3)-N-bis(PEG3-azide) linker, triazole at dLys(PYA)
With B9, in test [2], the “Fold improvement in EC50 over BCY10000” value amounted to 5.5 fold and the “Fold improvement in Emax over BCY10000” value worked out at 2.73 fold.

B10: BCY12761 (peptide)
peptide 1: CP[1Nal]DCM[hArg]DWSTP[Hyp]WC
peptide 2: Ac-C[tBuAla]PE[dK](Pent4ynoyl)PYCFAD[dNMeA]Y[Nle]C
modifications: linker I:1-I:5-I:15, II:1-II:8-II:15 via TATA; not fully specified (some residues, bridges); also: chain 1 N-terminus and chain 2 dLys(PYA)4 joined by N-(acid-PEG3)-N-bis(PEG3-azide) linker
In the case of B10, in test [1], the “EC50 (nM), HT1376 co-culture” value worked out at 0.37 nM and the “Emax (fold induction over background), HT1376” value is 76 fold over background.

B11: BCY11021 (peptide)
peptide 1: CPXDCMXDWSTPXWC
peptide 2: ACIEEXQYCFADPYXCA
modifications: not fully specified; BCY7744: Ac-A-(SEQ ID NO: 12)-A; TATA; linker at dLys(PYA)4; BCY11016: [PYA]-[B-Ala]-(SEQ ID NO: 1); TATA; linker at N-term PYA
Turning to B11, in test [2], the “Fold improvement in EC50 over BCY10000” value came out at 9.63 fold and the “Fold improvement in Emax over BCY10000” value came out at 4.42 fold.

B12: BCY12490 (peptide)
peptide 1: CPXKCMXDWSTPXWC
peptide 2: CXPEXPYCFADPYXCA
modifications: BCY8928: Ac-(SEQ ID NO: 11)-A; TATA; linker at dLys(PYA)4; BCY12024: Ac-(SEQ ID NO: 14); TATA; linker at dLys3
In the case of B12, in test [1], the “EC50 (nM), HT1376 co-culture” value was found to be 0.23 nM and the “Emax (fold induction over background), HT1376” value was 70 fold over background.

B13: BCY10918 (peptide)
peptide 1: CPXDCMXDWSTPXWC
peptide 2: CXPEXPYCFADPYXCA
modifications: not fully specified; BCY8928: Ac-(SEQ ID NO: 11)-A; TATA; linker at dLys(PYA)4; BCY11015: [PYA]-(SEQ ID NO: 1); TATA; linker at N-term PYA
In the case of B13, the “EC50 (nM), HT1376 co-culture” value in test [1] was 0.16 nM.

B14: BCY10919 (peptide)
peptide 1: CPXDCMXDWSTPXWC
peptide 2: CXPEAPYCFADPYXCX
modifications: not fully specified; BCY11014: Ac-(SEQ ID NO: 6)-Dap(PYA); TATA; linker at C-term Dap(PYA); BCY11015: [PYA]-(SEQ ID NO: 1); TATA; linker at N-term PYA
B14: in test [1], the “EC50 (nM), HT1376 co-culture” value was found to be 0.19 nM and the “Emax (fold induction over background), HT1376” value turned out to be 62 fold over background.

B15: BCY12587 (peptide)
peptide 1: CP[1Nal]DCM[hArg]DWSTP[Hyp]WC
peptide 2: [Mpa][tBuAla]PE[dK](Pent4ynoyl)PYCFADPY[Nle]C
modifications: linker I:1-I:5-I:15, II:1-II:8-II:15 via TATA; not fully specified (some residues); also: chain 2 present twice on linker, Nectin-4:CD137 1:2, linker at chain B 5 to a chain's N-terminus via N-(acid-PEG3)-N-bis(PEG3-azide)
For the molecule B15, in test [2], the “Fold improvement in EC50 over BCY10000” value was found to be 4.2 fold and the “Fold improvement in Emax over BCY10000” value came out at 2.9 fold.

B16: BCY12589 (peptide)
peptide 1: {Palmitoyl-γGlu-γGlu}-CP[1Nal]KCM[hArg]DWSTP[Hyp]WC
peptide 2: Ac-C[tBuAla]PE[dK](Pent4ynoyl)PYCFADPY[Nle]CA
modifications: linker I:1-I:5-I:15, II:1-II:8-II:15 via TATA; not fully specified; also: chain 2 present twice on linker, Nectin-4:CD137 1:2, linker at B5 via N-(acid-PEG3)-N-bis(PEG3-azide), other end not in the chain
With B16, in test [1], the “EC50 (nM), HT1376 co-culture” value came out at 0.44 nM and the “Emax (fold induction over background), HT1376” value amounted to 79 fold over background.
